Source: patent US20240400644A1 (ACROIMMUNE GUANGZHOU BIOTECH, published 2024)

What was measured:
[1] = target: CD24Fc (HEK293 cell derived) (UniProt P25063); assay: direct ELISA, antigen coated at 10 µg/ml, mAb titrated
[2] = target: T1, Siglec10-mIgG2aFc fusion protein (human, UniProt Q96LC7 17-546, limits assumed); assay: ELISA, Siglec10-mIgG2aFc coated at 0.2 µg/mL, fusion protein titrated
T1 construct: Bought, HEK293 cell derived; also called human Siglec-10; AcroBiosystems SIO-H525b; not shown: mouse IgG2a Fc of the bought protein
T1 sequence (looked up): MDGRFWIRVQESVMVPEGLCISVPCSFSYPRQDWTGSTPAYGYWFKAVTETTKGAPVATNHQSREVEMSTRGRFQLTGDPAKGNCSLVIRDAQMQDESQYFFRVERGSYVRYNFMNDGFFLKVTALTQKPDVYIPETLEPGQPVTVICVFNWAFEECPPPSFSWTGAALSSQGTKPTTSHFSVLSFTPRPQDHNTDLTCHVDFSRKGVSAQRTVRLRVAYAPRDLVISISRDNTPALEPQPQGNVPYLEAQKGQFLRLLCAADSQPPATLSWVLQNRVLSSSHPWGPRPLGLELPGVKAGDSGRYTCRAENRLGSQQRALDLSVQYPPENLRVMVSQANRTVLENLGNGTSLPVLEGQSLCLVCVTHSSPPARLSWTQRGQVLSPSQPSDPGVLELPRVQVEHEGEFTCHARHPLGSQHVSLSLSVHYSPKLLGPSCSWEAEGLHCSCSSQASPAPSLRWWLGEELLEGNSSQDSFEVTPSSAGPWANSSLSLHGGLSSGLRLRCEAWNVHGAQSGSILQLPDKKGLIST
Experimental: 96-well plates were coated (100 μL per well) with 0.2 μg/mL of HEK293 cell derived Siglec10-mlgG2aFc fusion protein (AcroBiosystems, SIO-H525b) at 4° C. overnight. After blocking with SuperBlock (Thermo, 37515) at room temperature for 1 hour, 100 μL of 2-fold serial dilutions of AI-071 or CD24Fc protein (all starting at 1.5 mg/mL) were added. The bound AI-071 or CD24Fc protein was then detected by HRP-labeled goat anti-human IgG-Fc antibody (1:5000, Invitrogen, A18829) followed by the addition of tetramethylbenzidine (TMB) substrates. The EC50 values of the binding are shown in the underneath table.
To probe the interaction of AI-071 protein with the members of Siglec family such as Siglec10, an ELSIA assay was developed. In-brief, 96-well plates were coated (100 μL per well) with 0.2 μg/mL of HEK293 cell derived Siglec10-mlgG2aFc fusion protein (AcroBiosystems, SIO-H525b) at 4° C. overnight. After washing and blocking with SuperBlock (Thermo, 37515) at room temperature for 1 hour, 100 μL of 2-fold serial dilutions of either AI-71 or CD24Fc (all starting at 1.5 mg/ml) were added. The bound AI-071 or CD24Fc protein was then detected by HRP-labeled goat anti-human IgG-Fc antibody (1:5000, Invitrogen, A18829) followed by the addition of Tetramethylbenzidin (TMB) substrates. […] The OD values at a wavelength of 450 nm (OD 450 nm) in each well were then measured.

HMGB1-His tag protein = target: T2, HMGB1-His tag protein (human, UniProt P09429 1-215, limits assumed); assay: ELISA, HMGB1-His coated at 0.1 µg/mL, fusion protein titrated
T2 construct: Bought, HEK293 cell derived; also called human HMGB1; HMGB1-His protein; not shown: His tag
T2 sequence (looked up): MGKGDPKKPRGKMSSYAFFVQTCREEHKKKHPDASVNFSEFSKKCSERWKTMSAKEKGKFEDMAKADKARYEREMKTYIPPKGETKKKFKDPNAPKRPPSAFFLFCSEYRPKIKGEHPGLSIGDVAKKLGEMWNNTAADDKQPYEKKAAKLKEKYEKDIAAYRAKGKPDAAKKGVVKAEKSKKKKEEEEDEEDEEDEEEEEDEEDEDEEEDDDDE
Experimental: 96-well plates were coated (100 μL per well) with 0.1 μg/mL HEK293 cell derived HMGB1-His tag protein (AcroBiosystems, HM1-H5220) at 4° C. overnight. After blocking with SuperBlock (Thermo, 37515) at room temperature for 1 hour, 100 μL of 2-fold serial dilutions of AI-071 or CD24Fc (all starting at 1.5 mg/mL, dilution buffer: PBST-1% BSA solution containing 1 mM MgCl2 and 1 mM CaCl2) were added. The bound AI-071 or CD24Fc protein was then detected by adding HRP-labeled goat anti-human IgG-Fc antibody (1:1000, Invitrogen, A18829), followed by the addition of tetramethylbenzidin (TMB) substrates. The EC50 values of the binding are shown in the underneath table. […] Recombinant HMGB1-His protein sample was incubated with AI-071, human IgG-Fc, or none for 5 min, the mixture was then incubated with protein A-conjugated beads to capture (or pull-down) the bound proteins. The captured proteins were then separated in a SDS-PAGE gel and visualized by Coomassie Brilliant Blue dye staining. […] As indicated on the top of each gel, lane 1 represents the sample containing HMGB1 only, lane 2 represents the sample containing HMGB1 and human IgG-Fc, and lane 3 represents the sample containing HMGB1 and AI-071, lane M is the protein molecule weight marker sample. […]

Molecule | EC50 [1] [nM] | EC50 [2] [nM] | EC50 (HMGB1-His tag protein) [µM]
SN3 mouse anti-CD24 mAb (antibody) | 4.67 | – | –
SETTTGTSSNSSQSTSNSGLAPNPTNATTKAAG (Fc fusion, UniProt P25063 27-59, looked up, not shown: Fc part) [CD24Fc (producing cell not stated)] | – | 2850 | 51
